Results on 1 molecule are retold here after patent publication US9505841B2, “Use of an anti-Ang2 antibody” (Samsung Electronics Co., Ltd., priority 2013, dated 2016).

One assay concerns LLC tumor. In words: Co-administration of anti-Ang2 antibody and cisplatin in LLC lung cancer animal model. In kind it is in vivo, mouse. The conditions noted are these: LLC mice; antibody 10 mg/kg i.p. every three days, five times; cisplatin 3 mg/kg i.p. once; control Fc of IgG1. The protocol: The synergistic effect of co-treatment of antibody 10D6 and cisplatin was examined.
In particular, referring to Example 14, LLC tumor cells were subcutaneously injected into mice. When the size of tumors reached 50˜100 mm^3, anti-Ang2 antibody 10D6 was injected at the concentration of 10 mg/kg via an intraperitoneal injection every three days a total of five times. After administering antibody 10D6 twice, 3 mg/kg of cisplatin (Sigma-Aldrich) was intraperitoneally injected once. The size of tumor (V) was calculated using the following formula: Volume (V)=(width)2×length/2
For comparison, the same experiment was performed to a control group treated with Fc of IgG1 and a comparative group treated with antibody 4H10.
In addition, an experiment was performed to examine whether the synergistic effect obtained by co-administration of 10D6 and cisplatin as described above is due to the increased transporting efficiency of the administered cisplatin induced by the vascular normalization by treatment of 10D6. Cisplatin binds to DNA in a living body and induces crosslinking, thereby inducing cell death. Rat monoclonal anti-Cisplatin modified DNA (CP9/19) antibody (1:200, Abcam), which is capable of binding to DNA modified by cisplatin in tumor frozen sections, and hamster anti-CD31 antibody (1:200, Millipore), were used for immunofluorescence staining, and fluorescence images were obtained using LSM5 confocal microscope (Zeiss). In addition, to examine necrotic region, the tumor frozen sections were stained with H&E according to standard protocol, and then, Eosin+ cell region in tumor was observed. The obtained results are illustrated in FIG. 18C.

Another assay deals with T1, Ang2-Tie2 binding (Homo sapiens, UniProt O15123).
T1 construct: purchased R&D Systems (hTie2-Fc)
T1 sequence (O15123 19-496): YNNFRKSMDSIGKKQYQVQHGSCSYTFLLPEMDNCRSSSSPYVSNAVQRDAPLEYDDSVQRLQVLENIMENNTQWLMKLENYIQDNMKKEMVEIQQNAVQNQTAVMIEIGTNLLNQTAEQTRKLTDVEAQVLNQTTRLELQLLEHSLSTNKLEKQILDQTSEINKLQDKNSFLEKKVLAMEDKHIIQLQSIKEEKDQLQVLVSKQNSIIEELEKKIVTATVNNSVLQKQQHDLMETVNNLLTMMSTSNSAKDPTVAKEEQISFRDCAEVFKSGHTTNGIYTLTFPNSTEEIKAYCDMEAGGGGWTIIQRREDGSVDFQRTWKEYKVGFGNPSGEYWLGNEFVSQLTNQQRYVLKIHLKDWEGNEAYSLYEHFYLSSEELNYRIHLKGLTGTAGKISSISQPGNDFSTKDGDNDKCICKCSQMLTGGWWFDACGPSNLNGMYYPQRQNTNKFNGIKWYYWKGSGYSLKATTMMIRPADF
In words: Ang2-Tie2 binding competition ELISA. The conditions noted are these: antibody 400 nM to 0.001 nM; 400 ng/ml FLAG-tagged hAng2; hTie2-Fc coated plate. The protocol: Ang2-Tie2 binding competition ELISA was conducted using the antibody binding to Ang2 prepared in Example 2-1 above.
More specifically, MaxiSorp™ flat-bottom plate (Nunc) of 96-well was coated with hTie2-Fc (R&D Systems) which is a protein bound with 4 ug (microgram)/ml of Fc of human IgG1. After that, the plate was washed five times with 0.05% (v/v) Tween-20-containing PBS (phosphate buffer saline) and then blocked with 1% (v/v) BSA (bovine serum albumin; Sigma)-containing PBS at a room temperature for 2 hour.
For Ang2:Tie2 competition ELISA, each anti-Ang2 antibody obtained in Example 2 was placed at various concentrations of 400 nM to 0.001 nM into each well coated with the hTie-2/Fc fusion protein along with 1% (v/v) BSA and 400 ng/ml of a FLAG-tagged hAng2 and then, the plate was allowed to react at a room temperature for 2 hours and washed five times with PBST. […] Lastly, 100 ul (microliter) of TMB substrate (Cell Signaling) was added to each well of the plate to induce color development for 3 min. and then, the reaction was ceased by the addition of 100 ul of Stop solution (Cell Signaling) and OD450 values were measured on a plate reader (Molecular Devices). […]
Background: ELISA stands for enzyme-linked immunosorbent assay.

Assay [1] has as its system LLC (Lewis Lung Carcinoma). The assay is described as follows: LLC tumor growth model. Format: in vivo, mouse. To be noted: LLC in C57BL/6 mice; 10 mg/kg intraperitoneal three times a week; control Fc of IgG1. The protocol: To see the tumor growth inhibitory effects of Ang2 antibody, a […] Xenograft model using a LLC (Lewis Lung Carcinoma) was employed.
LLC cells (ATCC) were cultured using 10% FBS (Gibco)-supplemented DMEM (Gibco) media. 1×10^6 of LLC cells were re-suspended in 100 ul of PBS (Gibco) and then subcutaneously injected into 6˜8-week-old C57BL/6 mice (Jackson Laboratory) anesthetized with 1˜2% isoflurane.
When the size of tumors reached 50˜100 mm^3, anti-Ang2 antibody (10D6) was injected at the concentration of 10 mg/kg via an intraperitoneal injection three times a week and the size of the tumors was measured.
The size of tumor (V) was calculated using the following formula: Volume (V)=(width)2×length/2
For comparison, the same experiment was performed to a control group treated with Fc of IgG1 and a comparative group treated with antibody 4H10 (refer to Example 3).

B1: 4H10: anti-Ang2 antibody inhibiting Ang2-Tie2 binding; heavy chain variable region SEQ ID NO: 12, light chain variable region SEQ ID NO: 13 (antibody, V domains shown)
VH: EVQLLESGGGLVQPGGSLRLSCAASGFTFSSYDMSWVRQAPGKGLEWVSLISPDSSSIYYADSVKGRFTISRDNSKNTLYLQMNSLRAEDTAVYYCAKDLISFWRGGFDYWGQGTLVTVSS
VL: QSVLTQPPSASGTPGQRVTISCSGSSSNIGSNYVNWYQQLPGTAPKLLIYADSNRPSGVPDRFSGSKSGTSASLAISGLRSEDEADYYCGSWDYSLSGYVFGGGTKLTVLG
modifications: Synthetic (heavy chain variable region of 4H10); Synthetic (light chain variable region of 4H10)
For B1, the “tumor size decreased by, compared to the control” value in the assay with LLC tumor came out at 29.2%. Besides, the “inhibition of Ang2-Tie2 binding” value with Ang2-Tie2 binding was “inhibiting Ang2-Tie2 binding”. In addition, the “inhibition of growth of the tumor compared to the control group” value in assay [1] is “about 27%”.
